The test deals with H-2Kb-restricted ova peptide SIINFEKL presented on H-2Kb (chicken). The test is described as follows: cell-based or functional assay.

As for transgenic OT-I T-cell receptor (TCR), the IFN-gamma ELISPOT, spots per well (spots per well) was greater than 1000.

For the origin of these results see patent publication US20100292309A1.
